Assay results as given in the supplement of paper PMC10567573.

B1: TMEM192 (parent)
chain: ILGKVILWILHLLLECYIQYHHSK
B2: OAS1 (parent)
chain: TPAKSLDKFIEDYLLPDTCFRMQI

Variants of: B1
Assay: protein stability index of a GFP-peptide fusion (GPS, HEK-293T) (PSI 1-6); higher = more stable
Conditions: c terminus: a fixed tail appended
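Further: lentivirally expressed fusions sorted by FACS into six bins by GFP to DsRed ratio, PSI derived from sequencing read proportions per bin multiplied by bin number.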

Protein stability index of substitutions, site by site:
K4: Y 2.87, G 3.12, H 4.67, R 1.83, V 2.92, S 2.9, P 1.73, A 2.97, L 3.75, F 3.11, W 2.93, E 2.46, D 3.04, T 2.8
H22: F 2.56, W 3.65, D 3.4, P 2.33, I 2.33, C 1.54, E 2.6, G 2.63, L 1.94, T 2.36, M 1.96, V 2.95, K 3.66, A 2.94
V5: E 3.81, P 1.85, F 2.7, T 2.49, D 3.49, Y 4.62, C 2.73, Q 2.86, G 3.88, N 2.55, A 2.85, M 3.23
C16: P 2.88, T 3.84, D 2.6, W 2.31, G 3.5, I 2.95, Y 3.21, E 2.48, A 3.38, S 5.42, M 3.3
L14: E 3.72, A 2.08, G 3.05, W 1.68, S 2.43, P 3.38, D 3.16, C 2.25, F 2.75, Q 2.28, N 3.68, V 4.41, H 3.19, M 2.95, T 3.98
L2: K 3.23, V 3.54, W 2.18, S 2.82, P 2.74, R 2.75, H 1.91, G 3.77, N 2.93, Y 2.77, D 2.04, T 3.29, A 2.41
L12: N 3.52, W 3.59, A 3, H 2.19, E 3.21, K 2.69, Q 4.15, S 3.61, V 2.88, G 3.98, P 3.07, D 3.31, M 2.29, R 2.87
L7: H 2.6, G 4.45, N 2.51, E 3.07, Y 2.85, K 2.36, M 1.54, Q 3.32, D 2.86, T 3.57, W 3.41, F 2.7, I 2.24, P 1.85, S 3.17, V 1.74
S23: D 2.57, E 2.49, Y 2.72, R 3.3, V 4.52, A 2.08, L 3.84, K 2.82, P 1.54, I 2.68, M 2.49, Q 2.32
H21: M 2.86, P 2.65, D 4.02, Y 4.47, K 3.49, G 3.35, F 3.45, E 3, W 2.55, T 2.54, L 2.36, I 3.57, R 1.92
I9: G 1.96, Y 2.94, N 4.27, V 3.3, W 3.09, H 3.16, E 4.08, R 2.96, K 3.67, L 2.68, F 3.71, D 2.89
I18: V 3.96, C 2.4, M 2.03, Q 3.46, G 2.71, K 3.4, F 3.01, T 2.31, H 2.59, Y 2.24, W 3.7, P 2.44, R 2.36, N 1.48, E 2.99
G3: K 3.66, V 2.32, Y 3.82, N 2.87, W 2.58, T 3.14, M 2.76, P 3.89, D 3.06, I 2.58
H11: A 2.76, W 2.94, S 2.22, G 2.09, M 4.49, K 3.6, Y 2.56, P 3.26, N 2.91, F 3.18, R 3.16, I 3.89, Q 2.29, C 3.27, T 2.63, V 3.77
L13: K 2.9, W 2.21, F 2.5, G 2.25, Y 2.97, I 2.04, R 2.37, V 2.8, T 2.88, S 2.98, M 3.1, Q 2.11
L10: W 3.83, K 1.75, S 2.3, F 3.04, D 2.76, M 3.36, R 1.98, E 5.03, T 2.19, N 3.04, I 3.22, P 3.36
Y20: C 3.13, K 2.51, G 2.11, H 1.97, E 3.48, P 3.57, Q 4.39, W 2.22, R 1.94, S 3.62, V 3.38, F 1.26, T 4.2, D 2.2, L 3.1
I1: C 2.82, F 2.81, S 3.41, D 2.93, W 2.22, K 1.79, V 3.68, N 3.45, M 3.36, H 2.88, E 3.42, R 2.92, P 2.56, G 3.43
K24: C 2.89, A 2.69, G 3.14, T 3.66, V 2.48, M 3.05, L 2.65, D 2.86, F 3.92, N 3.06, P 3, I 2.38, H 2.07
E15: G 2.81, Q 3.19, N 3.35, L 3.05, D 2.1, V 3.17, H 3.19, S 2.14, F 2.44, T 2.4, M 2.76
Y17: F 3.16, P 3.26, C 2.8, N 3.47, M 2.85, E 3.46, K 2.99, W 3.9, G 3.49, D 2.2, Q 2.67, L 2.59, I 3.59
I6: W 2.72, L 3.74, P 2.73, A 1.4, N 2.86, Y 2.98, S 3.76, Q 3.64, R 2.74, T 3.07, H 3.07, C 2.94, M 2.24
Q19: G 3.15, A 2.58, I 2.76, Y 3.49, N 2.91, C 3.13, H 2.44, T 2.57, F 2.49, K 2.25, W 2.36
W8: I 2.08, F 3.29, R 2.25, V 3.11, A 2.92, M 3.22, D 2.44, K 2.89, N 3.71, H 3.31, Y 2.98, S 3.6, G 2.02, Q 2.89

Variants of: B2
Assay: as above
Conditions: c terminus: a fixed tail appended

Protein stability index, by site and new letter:
P2: C 3.55
T1: E 1.7, I 2.59, L 3.21, M 1.9, P 2.51, Q 2.42, S 2.13, G 3.6, R 4.07, K 2.84, A 2.48, V 1.06, Y 2.84, C 2.39, H 3.45, W 2.39, N 3.42, D 1.82
